Measurements taken from publication PMC12329595, “Engineered bacteriophytochrome heterodimers for research and applications” (The Journal of Biological Chemistry, 2025).
Where two headings read alike, the source gives them in different places. Each block holds one molecule with its values, some of them ahead of it.

B1: DrBphPRR (full-length DrBphP E148R/E306R) (natural protein)
chain: MSRDPLPFFPPLYLGGPEITTENCEREPIHIPGSIQPHGALLTADGHSGEVLQMSLNAATFLGQEPTVLRGQTLAALLPEQWPALQAALPPGCPDALQYRATLDWPAAGHLSLTVHRVGELLILEFEPTEAWDSTGPHALRNAMFALRSAPNLRALAEVATQTVRELTGFDRVMLYKFAPDATGEVIAEARREGLHAFLGHRFPASDIPAQARALYTRHLLRLTADTRAAAVPLDPVLNPQTNAPTPLGGAVLRATSPMHMQYLRNMGVGSSLSVSVVVGGQLWGLIACHHQTPYVLPPDLRTTLRYLGRLLSLQVQVKEAADVAAFRQSLREHHARVALAAAHSLSPHDTLSDPALDLLGLMRAGGLILRFEGRWQTLGEVPPAPAVDALLAWLETQPGALVQTDALGQLWPAGADLAPSAAGLLAISVGEGWSECLVWLRPELRLEVAWGGATPDQAKDDLGPRHSFDTYLEEKRGYAEPWHPGEIEEAQDLRDTLTGALGERLSVIRDLNRALTQSNAEWRQYGFVISHHMQEPVRLISQFAELLTRQPRAQDGSPDSPQTERITGFLLRETSRLRSLTQDLHTYTALLSAPPPVRRPTPLGRVVDDVLQDLEPRIADTGASIEVAPELPVIAADAGLLRDLLLHLIGNALTFGGPEPRIAVRTERQGAGWSIAVSDQGAGIAPEYQERIFLLFQRLGSLDEALGNGLGLPLCRKIAELHGGTLTVESAPGEGSTFRCWLPDAGPLPGAADA
modifications: biliverdin IXα covalently linked to a conserved cysteine (holoprotein)
notes: Deinococcus radiodurans strain R1 bacteriophytochrome DrBphP, full length; source: E. coli BL21 (DE3), purified (Ni-NTA, SEC)

How the values were obtained:
[1] = molecular target: DrPSMRR (DrPSM E148R/E306R) (Deinococcus radiodurans strain R1); test: ITC; MicroCal PEAQ-ITC, 25 °C, darkness (Pr state), 30 mM Tris/HCl, 150 mM NaCl, pH 8.0; cell 9 to 18 μM, syringe 100 to 280 μM; single-site fit; individual components injected into buffer and vice versa as background
[2] = molecular target: DrPSMRR (DrPSM E148R/E306R) (Deinococcus radiodurans strain R1); test: as above; remark: listed apart in the source
[3] = molecular target: DrPSMRE (DrPSM E306R/R310E) (Deinococcus radiodurans strain R1); test: as above
[4] = molecular target: DrPSMRE (DrPSM E306R/R310E) (Deinococcus radiodurans strain R1); test: as above; remark: listed apart in the source
[5] = molecular target: the molecule itself; test: SEC; HPLC, bioZen 1.8 μm SEC-3 column, 30 mM Tris/HCl, 150 mM NaCl, pH 8.0 with 10% acetonitrile, 25 °C; full-length DrBphP and DrF1 variants and mixtures
[6] = molecular target: B1; test: as above; details: both partners purified

Kd [1]: 800 nM
stoichiometry N [1]: 1
Kd [2]: 12 nM
Molecule: DrPSMEE (DrPSM R141E/R310E) (domain or fragment)

Kd [3]: 12 nM
stoichiometry N [3]: 1
Kd [4]: 800 nM
Molecule: DrPSMER (DrPSM R141E/E148R) (domain or fragment)

Molecule: B1
binding result [5]: binds

B2: Full-length phytochrome from Deinococcus radiodurans strain R1 (DrBphP), wild type (natural protein)
chain: MSRDPLPFFPPLYLGGPEITTENCEREPIHIPGSIQPHGALLTADGHSGEVLQMSLNAATFLGQEPTVLRGQTLAALLPEQWPALQAALPPGCPDALQYRATLDWPAAGHLSLTVHRVGELLILEFEPTEAWDSTGPHALRNAMFALESAPNLRALAEVATQTVRELTGFDRVMLYKFAPDATGEVIAEARREGLHAFLGHRFPASDIPAQARALYTRHLLRLTADTRAAAVPLDPVLNPQTNAPTPLGGAVLRATSPMHMQYLRNMGVGSSLSVSVVVGGQLWGLIACHHQTPYVLPPDLRTTLEYLGRLLSLQVQVKEAADVAAFRQSLREHHARVALAAAHSLSPHDTLSDPALDLLGLMRAGGLILRFEGRWQTLGEVPPAPAVDALLAWLETQPGALVQTDALGQLWPAGADLAPSAAGLLAISVGEGWSECLVWLRPELRLEVAWGGATPDQAKDDLGPRHSFDTYLEEKRGYAEPWHPGEIEEAQDLRDTLTGALGERLSVIRDLNRALTQSNAEWRQYGFVISHHMQEPVRLISQFAELLTRQPRAQDGSPDSPQTERITGFLLRETSRLRSLTQDLHTYTALLSAPPPVRRPTPLGRVVDDVLQDLEPRIADTGASIEVAPELPVIAADAGLLRDLLLHLIGNALTFGGPEPRIAVRTERQGAGWSIAVSDQGAGIAPEYQERIFLLFQRLGSLDEALGNGLGLPLCRKIAELHGGTLTVESAPGEGSTFRCWLPDAGPLPGAADA
modifications: biliverdin IXα covalently linked to a conserved cysteine (holoprotein)
notes: Deinococcus radiodurans strain R1 bacteriophytochrome DrBphP, full length (PSM and histidine kinase module); also called DrBphPWT; source: E. coli BL21 (DE3), purified (Ni-NTA, SEC)
binding result [5]: binds

B3: DrBphPRE (full-length DrBphP E306R/R310E) (natural protein)
chain: MSRDPLPFFPPLYLGGPEITTENCEREPIHIPGSIQPHGALLTADGHSGEVLQMSLNAATFLGQEPTVLRGQTLAALLPEQWPALQAALPPGCPDALQYRATLDWPAAGHLSLTVHRVGELLILEFEPTEAWDSTGPHALRNAMFALESAPNLRALAEVATQTVRELTGFDRVMLYKFAPDATGEVIAEARREGLHAFLGHRFPASDIPAQARALYTRHLLRLTADTRAAAVPLDPVLNPQTNAPTPLGGAVLRATSPMHMQYLRNMGVGSSLSVSVVVGGQLWGLIACHHQTPYVLPPDLRTTLRYLGELLSLQVQVKEAADVAAFRQSLREHHARVALAAAHSLSPHDTLSDPALDLLGLMRAGGLILRFEGRWQTLGEVPPAPAVDALLAWLETQPGALVQTDALGQLWPAGADLAPSAAGLLAISVGEGWSECLVWLRPELRLEVAWGGATPDQAKDDLGPRHSFDTYLEEKRGYAEPWHPGEIEEAQDLRDTLTGALGERLSVIRDLNRALTQSNAEWRQYGFVISHHMQEPVRLISQFAELLTRQPRAQDGSPDSPQTERITGFLLRETSRLRSLTQDLHTYTALLSAPPPVRRPTPLGRVVDDVLQDLEPRIADTGASIEVAPELPVIAADAGLLRDLLLHLIGNALTFGGPEPRIAVRTERQGAGWSIAVSDQGAGIAPEYQERIFLLFQRLGSLDEALGNGLGLPLCRKIAELHGGTLTVESAPGEGSTFRCWLPDAGPLPGAADA
modifications: biliverdin IXα covalently linked to a conserved cysteine (holoprotein)
notes: as for B1
binding result [5]: binds

binding result [6]: binds
B4: DrBphPEE (full-length DrBphP R141E/R310E) (natural protein)
chain: MSRDPLPFFPPLYLGGPEITTENCEREPIHIPGSIQPHGALLTADGHSGEVLQMSLNAATFLGQEPTVLRGQTLAALLPEQWPALQAALPPGCPDALQYRATLDWPAAGHLSLTVHRVGELLILEFEPTEAWDSTGPHALENAMFALESAPNLRALAEVATQTVRELTGFDRVMLYKFAPDATGEVIAEARREGLHAFLGHRFPASDIPAQARALYTRHLLRLTADTRAAAVPLDPVLNPQTNAPTPLGGAVLRATSPMHMQYLRNMGVGSSLSVSVVVGGQLWGLIACHHQTPYVLPPDLRTTLEYLGELLSLQVQVKEAADVAAFRQSLREHHARVALAAAHSLSPHDTLSDPALDLLGLMRAGGLILRFEGRWQTLGEVPPAPAVDALLAWLETQPGALVQTDALGQLWPAGADLAPSAAGLLAISVGEGWSECLVWLRPELRLEVAWGGATPDQAKDDLGPRHSFDTYLEEKRGYAEPWHPGEIEEAQDLRDTLTGALGERLSVIRDLNRALTQSNAEWRQYGFVISHHMQEPVRLISQFAELLTRQPRAQDGSPDSPQTERITGFLLRETSRLRSLTQDLHTYTALLSAPPPVRRPTPLGRVVDDVLQDLEPRIADTGASIEVAPELPVIAADAGLLRDLLLHLIGNALTFGGPEPRIAVRTERQGAGWSIAVSDQGAGIAPEYQERIFLLFQRLGSLDEALGNGLGLPLCRKIAELHGGTLTVESAPGEGSTFRCWLPDAGPLPGAADA
modifications: biliverdin IXα covalently linked to a conserved cysteine (holoprotein)
notes: as for B1
